Assay: label from the status in PepcDB records

Sequence | protein production
MKSITQLENKKVLVLGLAKSGEAAARLLAKLGAIVTVNDGKAFEENPSAQSLLEEGIKVVCGGHPLELLDENFELMVKNPGIRYDNPMVARALEKEIPVWTEVELAYLVSEAPIIGITGSNGKTTTTTMIADVLNHGGKSGVLSGNIGFPASEVAQSVTNQDTLVMELSSFQLMGIESFHPHIAVITNLMPTHIDYHGSFEEYVAAKWNIQNEMTSDDFIILNFNQDLAKELATQTNAQVVPFSTVEKVDGAYLENGGLYFKGELLMHADELGVPGSHNVENALATIAVAKLSGVSNQAIKETLSSFGGVKHRLQFVDTIDDVKFYNDSKSTNILATQKALSGFDNSKVILIAGGLDRGNEFDELIPDITGLKKMVILGESAPRVKRAADKAGVTYLDAKDVADATRIAFEQASAGDVVLLSPANASWDMYKNFEVRGDEFITTVERLKG | failed
MKSKDSPIINEQFWDALFFNGTMPWDRSQTPNELKHYLKRIADKTHSVFIPGCGAAYEVSHFVDCGHDVIAMDYSAEAVNLAKSQLGQHQDKVMLGDVFNADFSREFDVIYERAFLAALPREIWGDYFAMIERLLPSNGLLVGYFVISDDYRSRFPPFCLRSGEIEQKLEANFHLIESTPVTDSVDVFKGKEQWMVWQKK | failed
MKSKRGFTLLEVLVALAIFATAAISVIRSVSQHINTVNYLEEKMFAAMVVDNQMAQVMLNPQSLAAREGSEQMAGRTWYWKLSPVKTADNLLKAFDVSVATEKGATPVVTVRSYVAN | failed
MKSLKGIIYAMISSGTFGLIPLFTIPLMGNMEMNESNILFYRFLFSTLMMGAVCLLHKSTLKINMKHLISIIGLGALYALTALFLIYSYHYITSGVATTIHFLYPICVSFLMVVFFKEQKSKSLFLAASLSLIGVALMCWSGGGSIRLMGIGLAALTILTYGIYIVALNQLDIGKLPAEVLTFYVLLGGCVIFFIYSLFTAGISSIPSTKAGFYILALAFLSTVISDLTLILAVKYAGSTTTAILGSMEPLVAVVVGVLVFSEHFTLQSLIGLLLILMSVIIVILADQQKKSKRITEQKIIKPH | failed
MKSLYQMNHIGHPFMYPKMDITKMNKTNNQNIPNKAHNPNNSSNMNTTKKSYGTSLNYIKKENSSKNSIYNNYEYLDASHLEMLDLNKNIKNILPKPMKPSLDLESLCKETTSTMKKSKMHCMKSGENQNKNVKHFYEMGTPQIIGTYIQPLHHNTNSFNQNNFPKNHMFPLLPSSPFFQPPNFRTNLTQASSTFIPLPHANKSTNIYGMPSYLIPENKPQNLTVTVVPNKDKDSIEKEAKHLKALLDSSSKGIVNSTPDYQKIQPSTLSNYNDKESDFSFGKNDNYEHAEYSEQNCNDENDTENNYNSFVNEFYDPHNSISYNNVNEFLKNSNQKNQQHAFRLESNEEVARKVHKEFTYPKGTSLNKINILNQNYKEEGEQQQENETKNNMNMQERDEERQTMKKDSSIPKRTQLSKKKEHNNNNIVLKKHEPSTCFKNPKTYINIRLGKPKKLYITNSSDPIDKKLSEWHNTHNSQIGWKKYRRGVYTFGKTEVILSLVHDKIIVKKINGKHIKDNLLTVEKFVSLNELYEIQQEENDNMLKKRGVKFFNF | failed
MKSRPRLLLVYPATHKLGWVRRFQLPSLSLKQVAAVTPPEWEVVMADEVHEDVPFGEKFDLVGITAMTHQAVRAYEIADRFRAQGVPVVLGGIHPTVLPEEAQAHADAVLIGEAEPVWAKLLDDFLAGRLAPLYRAPIPTDDRLVIPWSRRDILAGRQYLTTQTVQASRGCPYDCPFCTVTPYFGRTFRYRNPDDVLAELRSFEGKLMVFVDDNILGDPVRAKPILEGMAGMNLRWGGQANLRFAEDPELVKLVARSGCIGIFVGIESVTGPHANHAKTGNGSSQIDLVKRVRDAGIVLEASMIFGFDDHDEGIFERTVRFLEECAPSIPTFNVLTPYPGTSLFKQFDREGRLLHKDWSRYDHGQVVFRPKQMTPERLYRGWQEARWEAYRLPAIASRVMKGKGKLVNLAYNFLRRGGIERPDRIVHIREVAEP | failed
MKSSKAEKELTHQYVLNDSLHQLFDAVNIVSVQGYDEQRRVIYWNVGSELLYGYTQKEALGQKLEDLIIPKPMREIVIGAHSDWIKKGIEIPASEITLCHKNGNDVNVFSSHALFTNQYNKKQMYCIDVNLA | failed
MKSVSTWALSFFSDELSRRAVSDCYLWTTAISLLLILLLHIFFSTKFRFFTSAPSSSSSSSSSSSPSTESVPANSQSRISKLVSDEDLKFLIENLEEETNDSTEIWEHVIHKSNDRISYSAKRCKPKDGGGPMKYLSVTVFEGFSAEIVRDFYMDNDYRKLWDKTVVEHEQLQVDSNTGIEIGRTIKKFPLLTSREYVLAWRLWQGKEKKFYCFTKECDHNMVPQQRKYVRVSYFRSGWRIRQGNILSTFDTYLTDTFDTLAAVPGRNACEIKMFHQENAGLNVEMAKLAFSKGIWSYVCKMENALCKYIATSHRTQGPILSAVTLMKEVPSELETGTDNVTGSMETSSGEGVLSHVVAAKQKKKMRKPSTKLIAKGLVLVGGAICLSRGPSALGAKVALAYLLTKLNKRGTSLNQTTQTTTI | failed
MKSWIVKEIKINGLSYFGPLIFTVLPIAERIYKISLNSYIMINYLILVIFLSFICTYLVLSNLFNGIMYTLTYTVGISPKEIILTRLFLFSTIPVLPIAMALWMTSSLTTLAKFIIQIYILVLMSTIIGIIFKNDIIALIMDFIISALGLSVKINFLFPFLSGQLNPLSGIIVVLLLALTIYLLSNVELQKVERV | failed
MKSYMTQRLDEYRDGNEDKGRLLVSCPDQPGIVSAVSAFLFEHGANIIESNQYTTDPEGGRFFLRIEFDCAGIREKKSSLQAAFASVAEKFDMTWSLTLASELKRVAIFVSKNLHCLHELIWEWQTGNLMAEIAVVISNHEEARELVERLNIPFHYMKANKDIRAEVEKKQLELLEQYDVDVIVLARYMQILTPDFVSAHPNRIINIHHSFLPAFIGANPYKRAYERGVKLIGATSHYVTNDLDEGPIIEQDIKRVDHRDNAETLKNIGRTIERSVLARAVKWHLEDRVIVHENK | not failed
MKSYVLGEFGAEAALLDAARTLRARGGATLDLHSPYPLHGAEEALGLRKSTVPLVALVAGITGAVSGYLLQWYTVGYAWPLNVGNRPPHSAPAFIPVTFELGVLFSALAIFVGLLAVYFGFPRVHHPVFEVEAFRSASIDGLWLSAEVEAGDADAVAAELRRLGARLVSVVPEGK | failed
MKTAIVTDSASYLSAADVEKYHIHVVPITVIFGHQTYLENVEITSKEFYERMRTAPELPTTTQITLGQMQTTYDQLAKAGYDAVISIHLSSGITSFITNLESYLPNVTNIKVYPFDSLITAGGEAYMVLLAAKLVTEGYSPEQVIAQLKKIRETTGVYFVVDNLSHLVRTGRLSNASGLVGNLLRIKPVLTFQDGKIVAIQKERTMRRAYAAIKAKLAAEIAAVDYPLRVTIENGNNPKLQAEWTADLKASFPDLTIDEGEIGPVVGVHVGEGVMGLIWARDWEKWTI | failed
MKTAQHETISNREFYFVLYMMLLYVTGWVIDVNGLFLSSYFNLAGEIMLPLVGGIVGLFIMSVNKQQTK | failed
MKTARPGKLKRQEEQASFISWRFALLCGCILLALVGLIMRTAYLQVINPDKLVREGDMRSLRVQEVPTARGMISDRSGRPLAVSVPVNAVWADPKELIEQGGISLDTRWKALSDALEIPLDQLATRINANPKGRFVYLARQVNPAIGDYIRKLKLPGIHLRQESRRYYPAGQVMAHIIGVTNIDGQGIEGVEKSFDRWLTGQPGERTVRKDHYGRVIEDISSVDSQAAHNLVLSVDERLQALVYRELNNAVAFNKAESGTAVLVDVNTGEVLAMANSPSYNPNNLTGTPKDAMRNRAITDIFEPGSTVKPMVVMTALQHGVVKENSVLNTLPYFVNGHQIKDVARYAELSVTGILQKSSNVGVSKLALAMPSSALVDTYSRFGFGKATNLGLVGESSGLYPKKQRWSDIERATFSFGYGLMVTPLQLARVYATIGSMGVYRPLSITRVDPPVAGERIFPEPLVRTVVHMMESVALPGGGGTKAAIKGYRIAIKTGTAKKVGPDGKYMDRYLAYTAGVAPASNPRFALVVVINDPQAGKYYGGAVSAPVFGAIMGGVLRTMNIEPDALPTGDKSELVINTKEGSGGRS | not failed
MKTEMLHTQEDILKMLDSLLRPAEPFWNEFYENREKDVPFFENVPDENLVSYIQKERVLKGKVLELGCGPGRNAIYLANEGFDVTAVDLSVEGINWAKERALAKGVEIHFICDSIFNLEVQNEFDFVYDSGCLHHIPPHRRINYVDLIKNSLKSGGYFGLTCFAAGDLDERNGSEITDWDVYREWSLQGGLAYSEEKLREIFKELEVIEIRRMKQMKQPNEMFGESFLWTALFKKK | failed
MKTEMTNVDISVAVSELQKVINGKLDKAFLVNNQDGKELILKVHIPEIGSREIAIGLGKYKYMTLTEYEREKPRNPPSFVMLLRKHLKNIKITSVAQHNFDRIVIFNFEWNELKYKLIIELFGDGNAILLDSEDKIILPLKIERWSTRKIVPKEIYKFPPQKDLDPKNLDYSLAKKLFIEEFEKEENKDTEVVRIISRTFGLAGVYSEEICLNSEIDKNLKNPKNEEIEKLFEGSKSFFKKVFGELKPKSTLKNGEFVNIDPIDLKIHENLKENEIKHYESFLTALDEYFSRFIMKKEIKQAESKLQKLVKKQERILKSQLDTKDKYEKQSVSNHKRGDLIYANYSLVDEIVSTIKDAREKMDWNGIKNVIKENKTHPILSKIINVNEKNAELTLKLSADYGNGLIEDSVPVDLRKNAFENADIVYQKSKKFKNKVQGVIEALKISEKKLAELKEKEKLDSEVFKEKEEKIKKKERK | failed
MKTIRLWDLPTRLFHWLLVIAVVGAVATVKLGAGWMAWHERFGLAVVGLLAFRVVWGLVGSTYARFSQFISGPGAMIRYLRGQWQGAGHNPLGAWSVLLLLGLFGFQAVTGLFANDEIAFNGPLYRLVSSGWSDTLSSWHRLMEWGLYAVVALHVLAVLFYTHVRKDNLIKPMVTGRKQVQSSELKDASGGGWLAMIIALAIAVAVVWAASGGLIPPPPPPPQNLGW | failed
MKTITTFENKKVLVLGLARSGEAAARLLAKLGAIVTVNDGKPFDENPTAQSLLEEGIKVVCGSHPLELLDEDFCYMIKNPGIPYNNPMVKKALEKQIPVLTEVELAYLVSESQLIGITGSNGKTTTTTMIAEVLNAGGQRGLLAGNIGFPASEVVQAANDKDTLVMELSSFQLMGVKEFRPHIAVITNLMPTHLDYHGSFEDYVAAKWNIQNQMSSSDFLVLNFNQGISKELAKTTKATIVPFSTTEKVDGAYVQDKQLFYKGENIMSVDDIGVPGSHNVENALATIAVAKLAGISNQVIRETLSNFGGVKHRLQSLGKVHGISFYNDSKSTNILATQKALSGFDNTKVILIAGGLDRGNEFDELIPDITGLKHMVVLGESASRVKRAAQKAGVTYSDALDVRDAVHKAYEVAQQGDVILLSPANASWDMYKNFEVRGDEFIDTFESLRGE | not failed
MKTLFLQYPACSTCQKAKKWLIENNIEYTNRLIVDDNPTVEELKAWIPLSGLPVKKFFNTSGVVYKELKLSSKLPTMTEEEQIALLATNGKLVKRPLVVTERFVLVGFKPEEWEKL | not failed
MKTLHTDVAIIGAGTAGLAAYRAARAAGKRALLIEGGQYGTTCARVGCMPSKLLIAAAEAAHAAAHGGPFGVHIDGAVRIDGAQVMARVKSERDRFVGFVLEGVENIPAEDKLRGMARFVEDTVLRVDGHTEVRAGSVVIASGSRPAVPPPFLALGDRLVVNDDVFAWDTLPARVAVFGPGVIGLELGQALARLGVQVRVFGVSGSLGGITDPRVRQSARKAFQQEFYLDPDARVLETKRVGDEVEVRYVALDNTERTERFDYALVATGRRPNVDGLDLHNTSLALDARGVPHFDRHTMQAGQAPVFIAGDANADAPLLHEAADEGRIAGENAARYPDVAPGLRRAALGVVFSDPQIALVGTPFARLESGTFVAGEVDFGDQGRSRVMLRNRGMLRVYADIESGRFVGAEMVGPSAEHIGHLLAWAAQQSLTVAQMLEMPFYHPVVEEGLRTALRDAAARLAQARPQRLAA | failed
MKTTIAAALQQYFLNDNTACYVLTGDNYPHRIPMRNDEERLNVYNESGEDGLRGYLGTPKEIDFDRINKELSEFKAGKDIIEIKHMGREDGDISYDETDFTGIKVLILEWTHGGSEYLKGVDIPVFLESSPEETKARRIKRGRDENAASPFICRVVELEQEKLDLQGKNARIVVGKDGKVYEQLEHHHHHH | failed
